The target in this assay is T1, PCSK-9 in human serum samples (human, UniProt Q8NBP7 31-692, limits assumed).
T1 construct: Endogenous PCSK-9 in clinical serum of human subjects, detected with a goat anti-human PCSK-9 polyclonal antibody; also called proprotein convertase subtilisin/kexin type 9; serum free PCSK-9
Kind of assay: ELISA, ADI-10087 coated on a microplate, serum PCSK-9 captured, detected with goat anti-human PCSK-9 polyclonal antibody. As to the method: A corresponding TMB substrate of HRP enzyme was then added, the color intensity of the TMB substrate was proportional to the content of PCSK-9, and the concentration of PCSK-9 in clinical serum could be detected by OD values at 450 nm or 620 nm using a microplate reader.

T1 sequence (Q8NBP7 31-692 limits assumed): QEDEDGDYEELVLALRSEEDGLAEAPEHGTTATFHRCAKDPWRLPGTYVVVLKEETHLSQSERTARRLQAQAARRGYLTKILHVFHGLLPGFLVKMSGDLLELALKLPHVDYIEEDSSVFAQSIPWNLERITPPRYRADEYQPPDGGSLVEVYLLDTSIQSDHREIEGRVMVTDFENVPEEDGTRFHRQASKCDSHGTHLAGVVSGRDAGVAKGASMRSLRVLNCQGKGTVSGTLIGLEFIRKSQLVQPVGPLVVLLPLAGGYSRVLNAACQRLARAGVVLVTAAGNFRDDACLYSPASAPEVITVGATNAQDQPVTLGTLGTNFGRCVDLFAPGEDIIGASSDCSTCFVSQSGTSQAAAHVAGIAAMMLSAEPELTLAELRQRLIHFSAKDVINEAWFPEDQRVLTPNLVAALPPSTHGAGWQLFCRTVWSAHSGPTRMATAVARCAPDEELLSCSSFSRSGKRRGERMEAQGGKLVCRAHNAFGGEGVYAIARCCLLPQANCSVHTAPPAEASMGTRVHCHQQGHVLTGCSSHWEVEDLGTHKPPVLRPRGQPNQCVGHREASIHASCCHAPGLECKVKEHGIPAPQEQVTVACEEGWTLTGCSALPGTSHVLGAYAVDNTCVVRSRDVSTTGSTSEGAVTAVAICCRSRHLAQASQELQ

B1: ADI-10087 (antibody, V domains shown)
VH: QLQLQESGPGLVKPSETLSLTCTVSGGSISSASYYWSWIRQPPGKGLEWIGSINYRGSTYYNPSLKSRVTISVDTSKNQFSLKLSSVTAADTAVYYCARENSGVVPAAGPNWFGPWGQGTLVTVSS
VL: EIVLTQSPATLSLSPGERATLSCRASQSVSSYLAWYQQKPGQAPRLLIYDASNRATGIPARFSGSGSGTDFTLTISSLEPEDFAVYYCQQRRNWFTFGGGTKVEIKR
modifications: In Example 10 the antibody carries a ruthenium label, and in Example 9 biotin and ruthenium labels. The labelling sites are not stated and the letters do not carry them.
notes: The antibody was obtained from PCT/CN2017/118050; also called anti-PCSK9 antibody; test drug
Take B1: the binding result is reported as “binds”.
